Columns and labels:
[1] = molecular target: human PD-1 expressed on Jurkat T cells (human, UniProt Q15116 25-288); assay: cell-based or functional assay
[2] = molecular target: T1, recombinant human PD-1 (hPD-1) (human, UniProt Q15116 25-167, limits assumed); assay: BLI (ForteBio Octet); ASC captured on AHC biosensor, hPD-1 titrated from 100 nM in a 2x series; 1:1 fit
Protocol: ASCs were captured on an AHC (Anti-human IgG-Capture) biosensor. hPD-1 analytes were titrated from 100 nM in a 2× series dilution. The signal was subtracted with buffer reference and aligned to baseline. KD, Kon and Koff values were generated using a 1:1 fitting model.

[3] = molecular target: T1, recombinant human PD-1 (hPD-1); assay: competition ELISA: antibody titrated 3x and mixed with biotinylated hPD-L1-Fc (1 ug/mL), loaded on hPD-1-coated wells; residual hPD-L1-Fc detected with streptavidin-HRP, A450
Excerpt: The plate was developed with TMB and Stop buffer and the absorbance at 450 nm was read using a SpectraMax plate reader. A450 absorbance curves and IC50S were generated using GraphPad Prism software.

T1 sequence (Q15116 25-167 limits assumed): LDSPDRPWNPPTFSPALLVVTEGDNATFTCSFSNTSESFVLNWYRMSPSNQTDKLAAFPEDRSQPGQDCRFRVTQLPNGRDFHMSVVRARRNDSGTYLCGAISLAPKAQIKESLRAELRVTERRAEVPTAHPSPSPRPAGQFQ
human PD-1 expressed on Jurkat T cells, sequence (Q15116 25-288): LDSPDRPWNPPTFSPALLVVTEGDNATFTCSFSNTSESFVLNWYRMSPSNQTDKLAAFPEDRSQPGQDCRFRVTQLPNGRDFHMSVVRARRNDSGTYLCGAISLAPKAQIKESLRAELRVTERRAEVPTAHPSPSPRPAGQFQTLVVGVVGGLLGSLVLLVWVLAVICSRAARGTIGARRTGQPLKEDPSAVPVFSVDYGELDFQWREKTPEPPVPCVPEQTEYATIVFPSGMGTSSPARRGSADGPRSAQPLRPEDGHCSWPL

B1: ASC #3 (Janus anti-PD-1 antibody sialidase conjugate) (antibody, human IgG1, kappa, N297A)
light: EIVLTQSPATLSLSPGERATLSCRASKGVSTSGYSYLHWYQQKPGQAPRLLIYLASYLESGVPARFSGSGSGTDFTLTISSLEPEDFAVYYCQHSRDLPLTFGGGTKVEIKRTVAAPSVFIFPPSDEQLKSGTASVVCLLNNFYPREAKVQWKVDNALQSGNSQESVTEQDSKDSTYSLSSTLTLSKADYEKHKVYACEVTHQGLSSPVTKSFNRGEC
heavy: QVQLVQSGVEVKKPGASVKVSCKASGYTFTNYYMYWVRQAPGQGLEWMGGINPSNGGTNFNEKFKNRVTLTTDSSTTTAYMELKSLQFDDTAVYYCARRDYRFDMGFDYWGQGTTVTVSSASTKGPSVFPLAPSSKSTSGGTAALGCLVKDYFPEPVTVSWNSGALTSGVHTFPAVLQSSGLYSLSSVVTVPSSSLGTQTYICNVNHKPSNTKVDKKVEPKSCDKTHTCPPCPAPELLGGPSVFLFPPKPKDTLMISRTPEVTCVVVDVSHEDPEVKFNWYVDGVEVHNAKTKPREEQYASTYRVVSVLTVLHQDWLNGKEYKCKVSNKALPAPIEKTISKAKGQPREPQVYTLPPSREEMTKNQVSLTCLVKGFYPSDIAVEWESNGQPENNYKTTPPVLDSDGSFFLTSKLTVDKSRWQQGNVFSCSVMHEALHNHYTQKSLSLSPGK
chain: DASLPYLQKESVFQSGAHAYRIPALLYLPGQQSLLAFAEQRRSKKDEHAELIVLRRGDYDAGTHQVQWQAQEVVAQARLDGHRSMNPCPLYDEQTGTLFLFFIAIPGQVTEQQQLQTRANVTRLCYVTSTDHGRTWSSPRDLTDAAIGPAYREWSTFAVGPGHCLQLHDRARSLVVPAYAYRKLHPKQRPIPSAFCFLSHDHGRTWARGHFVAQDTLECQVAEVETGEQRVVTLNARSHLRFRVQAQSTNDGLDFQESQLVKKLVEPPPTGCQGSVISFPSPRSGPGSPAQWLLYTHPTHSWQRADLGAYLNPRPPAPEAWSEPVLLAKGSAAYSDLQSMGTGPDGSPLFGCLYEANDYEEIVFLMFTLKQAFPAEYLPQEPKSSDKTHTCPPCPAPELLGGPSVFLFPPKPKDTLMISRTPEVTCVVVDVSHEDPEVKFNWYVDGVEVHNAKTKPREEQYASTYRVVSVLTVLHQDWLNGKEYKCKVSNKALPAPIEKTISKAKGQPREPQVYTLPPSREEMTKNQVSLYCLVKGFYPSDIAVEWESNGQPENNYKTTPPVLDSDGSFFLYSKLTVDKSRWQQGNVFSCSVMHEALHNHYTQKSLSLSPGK
notes: Janus format: one antibody arm (one heavy and one light chain) and one sialidase-Fc fusion, heterodimerised by knob (T366Y) and hole (Y407T) mutations; also called ASC #3-1; ASC #3-2
[1]
  EC50 (nM), fold induction of NFAT-driven luciferase: 7.23 nM
[2]
  Kd: 10.3 nM
[3]
  IC50 (read off the curve): ~7 nM
